Broadly, the Kd is the free concentration of one partner at which half of the binding sites on the other are occupied at equilibrium, for simple one-to-one binding. Higher therefore signals lower affinity. One may read the koff as the rate constant with which the complex falls apart. A lower koff goes with slow dissociation. As usually defined, the kon is the rate constant with which the complex forms. A low value points to slower complex formation.

Drawing on publication PMC5518211 (Journal of Molecular Recognition, 2017), this text covers Kd, koff and kon for two molecules.

Read-outs that look alike come from different tables or passages of the source. Ends that are not written are not given here.

Experiment in all cases: SPR
The target in test [1] is T1, Calmodulin ( (human brain CaM or …, UniProt P0DP23 1-149)).
The target in test [2] is T1, Calmodulin. This is another data set of the same source.
Test [3] concerns the target T1, Calmodulin. This is another data set of the same source.
Test [4] addresses T1, Calmodulin. This is another data set of the same source.

B1: Full-length recombinant human neurogranin with a His-tag at the N-terminus (natural protein)
chain: MDCCTENACSKPDDDILDIPLDDPGANAAAAKIQASFRGHMARKKIKSGERGRKGPGPGGPGGAGVARGGAGGGPSGD
On to B1, for which, in test [1], the Kd worked out at 480 nM, the koff turned out to be 0.16 s⁻¹ and the kon came out at 340000 M⁻¹ s⁻¹. The same molecule showed a Kd in test [2] of 19000 nM.
Take LKKFNARRKLKGAILTTMLA (not fully specified) [Peptide corresponding to the CaM-binding region of CaMKIIα (CaMKII 290-309)]: in test [3], the koff was approximately 1 s⁻¹ and the kon is approximately 1e+09 M⁻¹ s⁻¹. The same molecule displayed a Kd in test [4] of 7.1 nM.
